# Test results as given in article PMC5964024.
# Assays:
# R5gp120-Hi (human) = R5gp120-Hi (human) (UniProt P51681); assay: flow cytometry on cells
# [1] = target: myc-tagged human CCR5 (wildtype) (human) (UniProt P51681); assay: flow cytometry on cells
substance,measurement,setting,value
BaL gp120-CD4-FLAG (from UniProt P01730 26-209) (ligand),Kd,R5gp120-Hi (human),0.012 µM
same,Kd,[1],0.032 µM
